A short description of the series: total protein half-life in vivo (active degradation + dilution); higher = more stable protein.
The mark [1] stands for this setting: E. coli NCM3722 delta-clpP delta-lon delta-hslV, growth: N-lim chemostat, doubling time 6 h.
[2] abbreviates: E. coli NCM3722 delta-clpP, growth: N-lim chemostat, doubling time 6 h.
Setting [3] is: E. coli NCM3722 delta-hslV, growth: N-lim chemostat, doubling time 6 h.
Where [4] appears, read: E. coli NCM3722 delta-lon, growth: N-lim chemostat, doubling time 6 h.
Where [5] appears, read: E. coli NCM3722 delta-smpB, growth: N-lim chemostat, doubling time 6 h.
The mark [6] stands for this setting: wild type E. coli NCM3722, growth: C-lim chemostat, doubling time 3 h.
The mark [7] stands for this setting: wild type E. coli NCM3722, growth: C-lim chemostat, doubling time 6 h.
Setting [8] is: wild type E. coli NCM3722, growth: C-lim chemostat, doubling time 12 h.
Where [9] appears, read: wild type E. coli NCM3722, growth: N-lim chemostat, doubling time 6 h.
The mark [10] stands for this setting: wild type E. coli NCM3722, growth: N-lim chemostat, doubling time 12 h.
The mark [11] stands for this setting: wild type E. coli NCM3722, growth: P-lim chemostat, doubling time 6 h.
[12] abbreviates: wild type E. coli NCM3722, growth: P-lim chemostat, doubling time 12 h.

± gives the standard deviation of the averaged measurements. Some results are limits rather than exact numbers.

Data on eight sequences can be found in the supplement of paper PMC11246515.

Consider “MKFPGKRKSKHYFPVNARDPLLQQFQPENETSAAWVVGIDQTLVDIEAKVDDEFIERYGLSAGHSLVIEDDVAEALYQELKQKNLITHQFAGGTIGNTMHNYSVLADDRSVLLGVMCSNIEIGSYAYRYLCNTSSRTDLNYLQGVDGPIGRCFTLIGESGERTFAISPGHMNQLRAESIPEDVIAGASALVLTSYLVRCKPGEPMPEATMKAIEYAKKYNVPVVLTLGTKFVIAENPQWWQQFLKDHVSILAMNEDEAEALTGESDPLLASDKALDWVDLVLCTAGPIGLYMAGFTEDEAKRKTQHPLLPGAIAEFNQYEFSRAMRHKDCQNPLRVYSHIAPYMGGPEKIMNTNGAGDGALAALLHDITANSYHRSNVPNSSKHKFTWLTYSSLAQVCKYANRVSYQVLNQHSPRLTRGLPEREDSLEESYWDR [P0AEW6]”, for which the “total protein half-life in vivo” value by setting is: under setting [1], 4.78 ± 0.21 h; under setting [2], 5.5 ± 1.9 h; under setting [3], 4.38 ± 0.28 h; under setting [4], 6.01 ± 2.3 h; under setting [5], 4.03 ± 0.31 h; under setting [6], 2.86 ± 0.38 h. In addition, the “total protein half-life in vivo” value reads like this: under setting [7], 5.87 ± 1.5 h; under setting [8], 8.23 h; under setting [9], 4.14 ± 0.24 h; under setting [10], 8.14 ± 1.9 h; under setting [11], 5.07 ± 0.35 h; under setting [12], 9.56 ± 0.61 h.
Regarding “MGKEVMGKKENEMAQEKERPAGSQSLFRGLMLIEILSNYPNGCPLAHLSELAGLNKSTVHRLLQGLQSCGYVTTAPAAGSYRLTTKFIAVGQKALSSLNIIHIAAPHLEALNIATGETINFSSREDDHAILIYKLEPTTGMLRTRAYIGQHMPLYCSAMGKIYMAFGHPDYVKSYWESHQHEIQPLTRNTITELPAMFDELAHIRESGAAMDREENELGVSCIAVPVFDIHGRVPYAVSISLSTSRLKQVGEKNLLKPLRETAQAISNELGFTVRDDLGAIT”, the “total protein half-life in vivo” value under setting [1] was 6.16 ± 0.066 h; the “total protein half-life in vivo” value under setting [2] is 6.38 ± 0.83 h; the “total protein half-life in vivo” value under setting [3] turned out to be 5.57 ± 0.36 h; the “total protein half-life in vivo” value under setting [4] turned out to be 5.84 ± 0.19 h; the “total protein half-life in vivo” value under setting [5] is 5.29 ± 0.3 h; the “total protein half-life in vivo” value under setting [6] worked out at 2.91 ± 0.036 h. For the same sequence, the “total protein half-life in vivo” value is, setting by setting: under setting [7], 6.07 ± 0.19 h; under setting [8], 12.6 ± 1.2 h; under setting [9], 5.86 ± 0.21 h; under setting [10], 9.57 ± 0.79 h; under setting [11], 6.38 ± 1.8 h; under setting [12], 11.2 ± 2.3 h.
Take “MLNQKIQNPNPDELMIEVDLCYELDPYELKLDEMIEAEPEPEMIEGLPASDALTPADRYLELFEHVQSAKIFPDSKTFPDCAPKMDPLDILIRYRKVRRHRDFDLRKFVENHFWLPEVYSSEYVSDPQNSLKEHIDQLWPVLTREPQDHIPWSSLLALPQSYIVPGGRFSETYYWDSYFTMLGLAESGREDLLKCMADNFAWMIENYGHIPNGNRTYYLSRSQPPVFALMVELFEEDGVRGARRYLDHLKMEYAFWMDGAESLIPNQAYRHVVRMPDGSLLNRYWDDRDTPRDESWLEDVETAKHSGRPPNEVYRDLRAGAASGWDYSSRWLRDTGRLASIRTTQFIPIDLNAFLFKLESAIANISALKGEKETEALFRQKASARRDAVNRYLWDDENGIYRDYDWRREQLALFSAAAIVPLYVGMANHEQADRLANAVRSRLLTPGGILASEYETGEQWDKPNGWAPLQWMAIQGFKMYGDDLLGDEIARSWLKTVNQFYLEQHKLIEKYHIADGVPREGGGGEYPLQDGFGWTNGVVRRLIGLYGEP”: the “total protein half-life in vivo” value came to 5.33 ± 0.21 h under setting [1]; 3.703 ± 0.019 h under setting [2]; 2.44 ± 0.17 h under setting [3]; 2.97 ± 0.09 h under setting [4]; 2.61 ± 0.21 h under setting [5]; 1.15 h under setting [6]. Moreover, the “total protein half-life in vivo” value is, setting by setting: under setting [7], 2.95 h; under setting [8], 3.87 ± 0.14 h; under setting [9], 2.47 ± 0.1 h; under setting [10], 3.37 ± 0.04 h; under setting [11], 2.42 ± 0.43 h; under setting [12], 4.75 ± 0.37 h.
For “MKQPGEELQETLTELDDRAVVDYLIKNPEFFIRNARAVEAIRVPHPVRGTVSLVEWHMARARNHIHVLEENMALLMEQAIANEGLFYRLLYLQRSLTAASSLDDMLMRFHRWARDLGLAGASLRLFPDRWRLGAPSNHTHLALSRQSFEPLRIQRLGQEQHYLGPLNGPELLVVLPEAKAVGSVAMSMLGSDADLGVVLFTSRDASHYQQGQGTQLLHEIALMLPELLERWIERV”, the “total protein half-life in vivo” value amounted to 5.46 ± 0.28 h under setting [1]; 1.73 ± 0.75 h under setting [3]; 1.21 ± 0.07 h under setting [4]; 0.944 ± 0.016 h under setting [5]; 1.4 ± 0.051 h under setting [6]; 2.35 ± 0.43 h under setting [7]. Further, the “total protein half-life in vivo” value reads like this: under setting [8], 2.74 ± 0.45 h; under setting [9], 1.33 h; under setting [10], 1.56 h; under setting [11], 2.18 ± 0.26 h; under setting [12], 3.12 ± 1 h.
As for “MAGNVQEKQLRWYNIALMSFITVWGFGNVVNNYANQGLVVVFSWVFIFALYFTPYALIVGQLGSTFKDGKGGVSTWIKHTMGPGLAYLAAWTYWVVHIPYLAQKPQAILIALGWAMKGDGSLIKEYSVVALQGLTLVLFIFFMWVASRGMKSLKIVGSVAGIAMFVMSLLYVAMAVTAPAITEVHIATTNITWETFIPHIDFTYITTISMLVFAVGGAEKISPYVNQTRNPGKEFPKGMLCLAVMVAVCAILGSLAMGMMFDSRNIPDDLMTNGQYYAFQKLGEYYNMGNTLMVIYAIANTLGQVAALVFSIDAPLKVLLGDADSKYIPASLCRTNASGTPVNGYFLTLVLVAILIMLPTLGIGDMNNLYKWLLNLNSVVMPLRYLWVFVAFIAVVRLAQKYKPEYVFIRNKPLAMTVGIWCFAFTAFACLTGIFPKMEAFTAEWTFQLALNVATPFVLVGLGLIFPLLARKANSK”, the “total protein half-life in vivo” value under setting [7] was found to be 6.93 h.
On to “MTIKNVICDIDGVLMHDNVAVPGAAEFLHGIMDKGLPLVLLTNYPSQTGQDLANRFATAGVDVPDSVFYTSAMATADFLRRQEGKKAYVVGEGALIHELYKAGFTITDVNPDFVIVGETRSYNWDMMHKAAYFVANGARFIATNPDTHGRGFYPACGALCAGIEKISGRKPFYVGKPSPWIIRAALNKMQAHSEETVIVGDNLRTDILAGFQAGLETILVLSGVSSLDDIDSMPFRPSWIYPSVAEIDVI [P0AF24]”, for which the “total protein half-life in vivo” value stood at 6.46 ± 0.48 h under setting [1]; 5.48 ± 0.16 h under setting [2]; 5.64 ± 0.15 h under setting [3]; 5.88 ± 0.64 h under setting [4]; 5.58 ± 0.17 h under setting [5]; 3.14 ± 0.041 h under setting [6]. In addition, the “total protein half-life in vivo” value turned out to be 5.71 ± 0.07 h under setting [7]; 11.6 ± 1.2 h under setting [8]; 5.465 ± 0.045 h under setting [9]; 9.89 ± 0.17 h under setting [10]; 6 ± 0.44 h under setting [11]; 10.4 ± 2.1 h under setting [12].
On to “MKTLIARHKAGEHIGICSVCSAHPLVIEAALAFDRNSTRKVLIEATSNQVNQFGGYTGMTPADFREFVFTIADKVGFARERIILGGDHLGPNCWQQENADAAMEKSVELVKEYVRAGFSKIHLDASMSCAGDPIPLAPETVAERAAVLCFAAESVATDCQREQLSYVIGTEVPVPGGEASAIQSVHITHVEDAANTLRTHQKAFIARGLTEALTRVIAIVVQPGVEFDHSNIIHYQPQEAQPLAQWIENTRMVYEAHSTDYQTRTAYWELVRDHFAILKVGPALTFALREAIFALAQIEQELIAPENRSGCLAVIEEVMLDEPQYWKKYYRTGFNDSLLDIRYSLSDRIRYYWPHSRIKNSVETMMVNLEGVDIPLGMISQYLPKQFERIQSGELSAIPHQLIMDKIYDVLRAYRYGCAE [P0C8J8]”, for which the “total protein half-life in vivo” value was 5.59 h under setting [1], 2.97 h under setting [7] and over 8 h under setting [9].
Consider “MNTISSLETTDLPAAYHIEQRAHAFPWSEKTFASNQGERYLNFQLTQNGKMAAFAITQVVLDEATLFNIAVDPDYQRQGLGRALLEHLIDELEKRGVATLWLEVRASNAAAIALYESLGFNEATIRRNYYPTTDGREDAIIMALPISM [P0A944]”, for which the “total protein half-life in vivo” value under setting [1] came out at 5.64 h; the “total protein half-life in vivo” value under setting [2] was 4.51 h; the “total protein half-life in vivo” value under setting [4] was determined as 4.5 ± 0.79 h; the “total protein half-life in vivo” value under setting [5] is 3.85 h; the “total protein half-life in vivo” value under setting [6] is over 4 h; the “total protein half-life in vivo” value under setting [8] was 15.9 h. The “total protein half-life in vivo” value is, setting by setting: under setting [9], 3.845 ± 0.034 h; under setting [10], 6.18 h; under setting [11], 4.53 h; under setting [12], 8.18 h.
